Results on 9 molecules are retold here after patent US20220265819A1 (GEN2 NEUROSCIENCE, published 2022).

Experiment [1] addresses T1, full length recombinant human 2N4R tau (amino acids 1-441) (human, UniProt P10636 1-758).
T1 construct: Bought (rPeptide); recombinant, non-phosphorylated; also called recombinant tau
Briefly: SPR Biacore SCK, IgG on Protein A, tau analyte. As for the experimental part: 23.5 Assessment of antibody binding to tau (Biacore SCK analysis): Binding of anti-tau hIgG1 to full length recombinant 2N4R tau (Rpeptide; SEQ ID NO: 2) was assessed using the Biacore T200 (GE Healthcare, Chicago, Ill., USA) running Biacore T200 Evaluation Software V2.0.1. hIgG1 were immobilised on a Protein A capture sensor chip in running buffer (HBS-EP+ buffer containing 1 mg/mL BSA) at 25° C. captured to ˜50 RU at 10 μL/min. For single-cycle kinetics experiments, recombinant 2N4R tau was flowed at concentrations ranging from 5 nM to 40 nM (2-fold dilutions) with an association time of 150 s and a dissociation time of 200 s. Curves were compared to a reference cell that was mock immobilized (no antibody present).
Data were analysed using Langmuir (1:1) binding analysis, describing a 1:1 interaction at the surface: […]

Experiment [2] addresses T1, full length recombinant human 2N4R tau …. In words: SPR Biacore MCK, purified IgG on Protein A, tau analyte. As for the experimental part: Biacore multi-cycle kinetics (MCK) analyses for antibody binding to recombinant (non-phosphorylated) 2N4R tau are summarised in FIG. 23 and Table 8. […] Slight variations in RMAX are considered likely to be due to differences in ligand capture and not reflective of significant variation in antibody binding characteristics.
24.2 Assessment of antibody binding to tau (Biacore MCK analysis): Binding of anti-tau hIgG1 to full length recombinant 2N4R tau (Rpeptide; SEQ ID NO: 2) was assessed using the Biacore T200 (GE Healthcare, Chicago, Ill., USA) running Biacore T200 Evaluation Software V2.0.1. hIgG1 were immobilised on a Protein A capture sensor chip in running buffer (HBS-EP+ buffer containing 1 mg/mL BSA) at 25° C. captured to ˜50 RU at 10 μL/min. […] Curves were compared to a reference cell that was mock immobilized (no antibody present).
For orientation: Surface plasmon resonance follows binding to a sensor surface in real time, without labels.

The next experiment deals with T2, Bovine serum albumin (bovine, UniProt P02769 25-607).
T2 construct: Negative control antigen in ELISA; also called BSA
In words: ELISA on 1% BSA, HEK supernatant, anti-human IgG-HRP, n=1. As for the experimental part:
Antigen was removed from wells and the plates were then blocked for 1 hour at RT with 5% dried milk in 1×TBS. Blocking solution was removed, HEK293 cell supernatant (1:100 in 1% BSA/1×TBS) was added to relevant wells, and plates were incubated for 1 hour at RT with gentle shaking. Plates were then washed four times with TBS/0.1% Tween (TBST). Goat-anti-human IgG-HRP antibody (ThermoFisher Scientific, Waltham, Mass. USA), diluted 1:2000 in 5% milk/TBS, was added to each well and plates were incubated for 1 hour at RT with gentle shaking before being washed four times with TBST. 3,3′,5,5′-tetramethylbenzidine (TMB) ELISA solution was added to each well and plates were incubated for 15 mins at RT. An equal volume of 1 M sulfuric acid was added to each well and OD was measured at 450 nm.

For experiment [3], the target named is full length pHrodo-labelled monomeric (P301S) 2N4R tau (human, UniProt P10636 1-758, labelled with pHrodo Red Maleimide). Briefly: cell-based or functional assay.
The target in experiment [4] is full length pHrodo-labelled aggregated (P301S) 2N4R tau (human, UniProt P10636 1-758, labelled with pHrodo Red Maleimide). In words: cell-based or functional assay.
full length pHrodo-labelled aggregated (P301S) 2N4R tau, sequence (P10636 other isoform, or with tags, fused parts or gaps P301S P301S): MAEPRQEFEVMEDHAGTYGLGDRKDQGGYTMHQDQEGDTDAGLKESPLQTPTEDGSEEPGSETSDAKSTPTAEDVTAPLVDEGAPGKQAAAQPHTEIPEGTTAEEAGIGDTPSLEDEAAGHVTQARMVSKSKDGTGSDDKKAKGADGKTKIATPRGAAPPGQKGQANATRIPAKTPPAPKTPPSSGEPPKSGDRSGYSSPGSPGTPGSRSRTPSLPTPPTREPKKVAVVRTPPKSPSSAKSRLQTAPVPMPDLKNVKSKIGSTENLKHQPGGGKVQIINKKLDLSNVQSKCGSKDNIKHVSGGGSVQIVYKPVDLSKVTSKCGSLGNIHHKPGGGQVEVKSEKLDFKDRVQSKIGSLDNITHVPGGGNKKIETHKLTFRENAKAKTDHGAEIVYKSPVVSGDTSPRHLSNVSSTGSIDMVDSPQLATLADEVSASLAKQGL

full length pHrodo-labelled monomeric (P301S) 2N4R tau, sequence (P10636 other isoform, or with tags, fused parts or gaps P301S P301S): as above
T1 sequence (P10636 other isoform, or with tags, fused parts or gaps limits assumed): as the sequence (P10636 other isoform, or with tags, fused parts or gaps P301S P301S) above, with S301P counted along it
T2 sequence (P02769 25-607 limits assumed): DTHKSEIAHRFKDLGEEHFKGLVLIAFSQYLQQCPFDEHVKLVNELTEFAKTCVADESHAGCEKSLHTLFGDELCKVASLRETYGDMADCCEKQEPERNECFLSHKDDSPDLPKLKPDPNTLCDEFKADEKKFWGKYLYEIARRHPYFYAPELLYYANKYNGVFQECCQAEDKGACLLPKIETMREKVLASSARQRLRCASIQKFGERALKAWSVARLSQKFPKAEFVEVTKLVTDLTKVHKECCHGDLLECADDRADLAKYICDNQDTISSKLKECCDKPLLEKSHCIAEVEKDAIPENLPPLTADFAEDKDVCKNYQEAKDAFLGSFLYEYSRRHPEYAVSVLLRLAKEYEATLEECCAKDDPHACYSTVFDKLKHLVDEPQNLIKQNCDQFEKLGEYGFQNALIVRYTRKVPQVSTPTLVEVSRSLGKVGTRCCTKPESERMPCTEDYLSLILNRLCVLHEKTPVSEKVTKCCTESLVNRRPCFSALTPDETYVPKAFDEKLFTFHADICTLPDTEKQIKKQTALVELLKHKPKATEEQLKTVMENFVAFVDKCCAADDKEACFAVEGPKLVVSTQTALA

B1: Clone #28 VH0VK0 chimeric human IgG1 (rabbit VH and VK of Clone 1) (antibody, V domains shown)
VH: QSLEESGGGLVKPGGTLTLTCTVSGFSLNNYDMSWVRQAPGKGLEWIGTVSTTYRRYYASWAKGRFTISKTSSTTVDLKMTSLTTEDTATYFCAASGIWGPGTLVTVSL
VL: AQVLTQTTSPVSAAVGGTVTINCQSSQRVYSNYLAWYQQKPGQPPKRLIFLASTLESGVPSRFSGSGSGTQFTLTISDLECDDAATYYCAGTYTGSIWAFGGGTEVVVK
notes: also called VH0Vκ0; #28 VH0κ0
As to B1, in experiment [1], the equilibrium dissociation constant (Kd) was found to be 45.3 nM, the “Relative KD” value worked out at 1 fold vs VH0VK0, the off-rate constant (koff) worked out at 0.00342 s⁻¹ and the kon came to 75400 M⁻¹ s⁻¹. Further, in experiment [2], the equilibrium dissociation constant (Kd) stood at 24.9 nM, the “Relative KD” value is 1 fold vs VH0VK0, the off-rate constant (koff) is 0.00249 s⁻¹ and the kon was 99900 M⁻¹ s⁻¹. In addition, the binding result with Bovine serum albumin is reported as “no binding (tested: supernatant 1:100)”.

B2: Clone 31 (VH5Vκ2), humanised variant of clone #28, human IgG1 (antibody, V domains shown)
VH: QVQLQESGPGLVKPSETLSLTCTVSGFSLNNYDMSWVRQAPGKGLEWIGTVSTTYRRYYASWAKGRFTISRDNSKNTLDLQMTSLTAEDTATYFCAASGIWGRGTLVTVSS
VL: AQVLTQSPSTLSASVGDRVTITCQSSQRVYSNYLAWYQQKPGQPPKRLIFLASTLESGVPSRFSGSGSGTEFTLTISSLQPDDFATYYCAGTYTGSIWAFGGGTKVEIK
notes: also called VH5VK2; VH5Vk2
Turning to B2, in experiment [3], the “inhibition of uptake of monomeric tau into human iPSC-derived astrocytes” value is 26.7 % inhibition and the “inhibition of uptake of monomeric tau into human iPSC-derived neurons” value is 57.3 % inhibition. Moreover, in experiment [4], the “increase of uptake of aggregated tau into human iPSC-derived microglia” value was 133 % increase, the “inhibition of uptake of aggregated tau into human iPSC-derived astrocytes” value is 27.8 % inhibition and the “inhibition of uptake of aggregated tau into human iPSC-derived neurons” value amounted to 57.2 % inhibition. In experiment [1], the Kd was found to be 96.5 nM, the “Relative KD” value worked out at 2.13 fold vs VH0VK0, the koff turned out to be 0.00362 s⁻¹ and the association rate constant (kon) is 37500 M⁻¹ s⁻¹. For the same molecule, in experiment [2], the equilibrium dissociation constant (Kd) was 34.8 nM, the “Relative KD” value was 1.4 fold vs VH0VK0, the koff amounted to 0.00321 s⁻¹ and the kon stood at 92400 M⁻¹ s⁻¹. The binding result with Bovine serum albumin is “no binding (tested: supernatant 1:100)”.

B3: Clone 21 (VH2Vκ5), humanised variant of clone #28, human IgG1 (antibody, V domains shown)
VH: QSLQESGPGLVKPSETLSLTCTVSGFSLNNYDMSWVRQAPGKGLEWIGTVSTTYRRYYASWAKGRFTISKTSSTTVDLQMTSLTAEDTATYFCAASGIWGRGTLVTVSS
VL: DIQMTQSPSTLSASVGDRVTITCQSSQRVSSSYLAWYQQKPGQPPKRLIFLASTLESGVPSRFSGSGSGTEFTLTISSLQPDDFATYYCAGTYTGSIWAFGGGTKVEIK
notes: also called VH2VK5
Turning to B3, in experiment [1], the dissociation constant (Kd) amounted to 136 nM, the “Relative KD” value amounted to 3 fold vs VH0VK0, the off-rate (koff) was 0.00523 s⁻¹ and the association rate constant (kon) stood at 38500 M⁻¹ s⁻¹. The binding result in the experiment with Bovine serum albumin is recorded as “no binding (tested: supernatant 1:100)”.

B4: Clone 20 (VH2Vκ4), humanised variant of clone #28, human IgG1 (antibody, V domains shown)
VH: QSLQESGPGLVKPSETLSLTCTVSGFSLNNYDMSWVRQAPGKGLEWIGTVSTTYRRYYASWAKGRFTISKTSSTTVDLQMTSLTAEDTATYFCAASGIWGRGTLVTVSS
VL: DIQMTQSPSTLSASVGDRVTITCQSSQRVYSNYLAWYQQKPGQPPKRLIFLASTLESGVPSRFSGSGSGTEFTLTISSLQPDDFATYYCAGTYTGSIWAFGGGTKVEIK
notes: also called VH2VK4
In the case of B4, in experiment [1], the dissociation constant Kd amounted to 38 nM, the “Relative KD” value was 0.84 fold vs VH0VK0, the koff turned out to be 0.00234 s⁻¹ and the kon stood at 61500 M⁻¹ s⁻¹. The binding result with Bovine serum albumin is reported as “no binding (tested: supernatant 1:100)”.

B5: Clone 16 (VH1Vκ4), humanised variant of clone #28, human IgG1 (antibody, V domains shown)
VH: QSLQESGGGLVKPSETLSLTCTVSGFSLNNYDMSWVRQAPGKGLEWIGTVSTTYRRYYASWAKGRFTISKTSSTTVDLKMTSLTAEDTATYFCAASGIWGRGTLVTVSS
VL: DIQMTQSPSTLSASVGDRVTITCQSSQRVYSNYLAWYQQKPGQPPKRLIFLASTLESGVPSRFSGSGSGTEFTLTISSLQPDDFATYYCAGTYTGSIWAFGGGTKVEIK
notes: also called VH1VK4
Regarding B5, in experiment [1], the equilibrium dissociation constant (Kd) stood at 31.2 nM, the “Relative KD” value is 0.69 fold vs VH0VK0, the dissociation rate constant (koff) was determined as 0.00207 s⁻¹ and the on-rate constant (kon) turned out to be 66300 M⁻¹ s⁻¹. Also, the binding result with Bovine serum albumin is “no binding (tested: supernatant 1:100)”.

B6: Clone 27 (VH4Vκ2), humanised variant of clone #28, human IgG1 (antibody, V domains shown)
VH: QVQLQESGPGLVKPSETLSLTCTVSGFSLNNYDMSWVRQAPGKGLEWIGTVSTTYRRYYASWAKGRFTISKDTSSTTVDLQMTSLTAEDTATYFCAASGIWGRGTLVTVSS
VL: AQVLTQSPSTLSASVGDRVTITCQSSQRVYSNYLAWYQQKPGQPPKRLIFLASTLESGVPSRFSGSGSGTEFTLTISSLQPDDFATYYCAGTYTGSIWAFGGGTKVEIK
notes: also called VH4VK2; VH4Vk2
B6: in experiment [3], the “inhibition of uptake of monomeric tau into human iPSC-derived neurons” value is 66.5 % inhibition. Moreover, in experiment [4], the “increase of uptake of aggregated tau into human iPSC-derived microglia” value turned out to be 179 % increase and the “inhibition of uptake of aggregated tau into human iPSC-derived neurons” value came out at 58.7 % inhibition. In addition, in experiment [1], the Kd is 68.6 nM, the “Relative KD” value came out at 1.51 fold vs VH0VK0, the off-rate (koff) is 0.00308 s⁻¹ and the on-rate constant (kon) is 44800 M⁻¹ s⁻¹. Also, in experiment [2], the dissociation constant (Kd) was 44 nM, the “Relative KD” value is 1.77 fold vs VH0VK0, the off-rate constant (koff) turned out to be 0.0026 s⁻¹ and the kon came to 59100 M⁻¹ s⁻¹. In addition, the binding result with Bovine serum albumin is “no binding (tested: supernatant 1:100)”.

B7: Clone 17 (VH1Vκ5), humanised variant of clone #28, human IgG1 (antibody, V domains shown)
VH: QSLQESGGGLVKPSETLSLTCTVSGFSLNNYDMSWVRQAPGKGLEWIGTVSTTYRRYYASWAKGRFTISKTSSTTVDLKMTSLTAEDTATYFCAASGIWGRGTLVTVSS
VL: DIQMTQSPSTLSASVGDRVTITCQSSQRVSSSYLAWYQQKPGQPPKRLIFLASTLESGVPSRFSGSGSGTEFTLTISSLQPDDFATYYCAGTYTGSIWAFGGGTKVEIK
notes: also called VH1VK5
Take B7: in experiment [1], the Kd was 41.1 nM, the “Relative KD” value is 0.91 fold vs VH0VK0, the koff worked out at 0.00428 s⁻¹ and the kon came out at 104000 M⁻¹ s⁻¹. For the same molecule, in the experiment with Bovine serum albumin, the binding result is listed as “no binding (tested: supernatant 1:100)”.

B8: Clone 18 (VH2Vκ1), humanised variant of clone #28, human IgG1 (antibody, V domains shown)
VH: QSLQESGPGLVKPSETLSLTCTVSGFSLNNYDMSWVRQAPGKGLEWIGTVSTTYRRYYASWAKGRFTISKTSSTTVDLQMTSLTAEDTATYFCAASGIWGRGTLVTVSS
VL: AQVLTQSTSPLSASVGDRVTITCQSSQRVYSNYLAWYQQKPGQPPKRLIFLASTLESGVPSRFSGSGSGTEFTLTISSLQCDDFATYYCAGTYTGSIWAFGGGTEVVIK
notes: also called VH2VK1
Take B8: in experiment [1], the Kd was determined as 49.2 nM, the “Relative KD” value worked out at 1.09 fold vs VH0VK0, the off-rate constant (koff) was found to be 0.0033 s⁻¹ and the on-rate (kon) came out at 67100 M⁻¹ s⁻¹. For the same molecule, the binding result with Bovine serum albumin was “no binding (tested: supernatant 1:100)”.

B9: Clone 19 (VH2Vκ2), humanised variant of clone #28, human IgG1 (antibody, V domains shown)
VH: QSLQESGPGLVKPSETLSLTCTVSGFSLNNYDMSWVRQAPGKGLEWIGTVSTTYRRYYASWAKGRFTISKTSSTTVDLQMTSLTAEDTATYFCAASGIWGRGTLVTVSS
VL: AQVLTQSPSTLSASVGDRVTITCQSSQRVYSNYLAWYQQKPGQPPKRLIFLASTLESGVPSRFSGSGSGTEFTLTISSLQPDDFATYYCAGTYTGSIWAFGGGTKVEIK
notes: also called VH2VK2
Consider B9, for which, in experiment [1], the dissociation constant Kd was 67.3 nM, the “Relative KD” value was found to be 1.49 fold vs VH0VK0, the koff came to 0.00324 s⁻¹ and the kon stood at 48100 M⁻¹ s⁻¹. The binding result with Bovine serum albumin is listed as “no binding (tested: supernatant 1:100)”.

The term Kd denotes a measure of binding affinity in units of concentration. By koff is commonly meant the first-order rate constant of dissociation. One may read the kon as the rate constant with which the complex forms.
